Measurements from the DeepSol protein solubility set.

Assay: soluble on expression in E. coli; label from the status in PepcDB or PDB records

Soluble on expression in E. coli, soluble:
MQNAEKLDFKITGGWIIDGTGAPRRRADLGVRDGRIAAIGELGAHPARHAWDASGKIVAPGFIDVHGHDDLMFVEKPDLRWKTSQGITTVVVGNCGVSAAPAPLPGNTAAALALLGETPLFADVPAYFAALDAQRPMINVAALVGHANLRLAAMRDPQAAPTAAEQQAMQDMLQAALEAGAVGFSTGLAYQPGAVAQAAELEGLARVAAERRRLHTSHIRNEADGVEAAVEEVLAIGRGTGCATVVSHHKCMMPQNWGRSRATLANIDRAREQGVEVALDIYPYPGSSTILIPERAETIDDIRITWSTPHPECSGEYLADIAARWGCDKTTAARRLAPAGAIYFAMDEDEVKRIFQHPCCMVGSDGLPNDARPHPRLWGSFTRVLGRYVREARLMTLEQAVARMTALPARVFGFAERGVLQPGAWADVVVFDPDTVADRATWDEPTLASVGIAGVLVNGAEVFPQPPADGRPGQVLRAGA
MAHHHHHHMSLVKMKERDEKAREEAEKLLNEVIEQSQGKMYKPTAAAGVGVNTQPHNRRMRVETLRSTPDYIFKIILVGDSYVGKTRFLKNLVGAIGFGDQCVTTLSVDVVNHYVIVDGKTVQVLMYDTCGQERFRAMTAQFYRDAHGAIMVYDTTQIGSFDNIEVWFSQLNSFGCENTSKILVGNKCDLPERRAVEIGRARALADKLGVPFIETSAMTGAGVAVAVEALVRMIMRQQPVPLASQWAGSKSGHRNAVNLERPRRENGTGRRSERSQRNDNCCCQ
MSLSPAQLAAVRRSFRNGRASLTRRSLLRASAGGALAVGGLGALSACGIPAAGRTEGGVSAEDHSAEEKTINFSNWPEYIDVDDSGKRHPTLDAFAKRTGIQVKYTEDINDNDEFFGKIQPQLAAGQSTGRDLIVLTDWLAARMIRLGYVQKLDPSHLPHAFANLSDQFRAPDWDPGRAYSYPWQGISTVIAYNKKALDGVEVKSVSDLLDNPKLKGRVGFLTEMRDSVGMTMLDMGKDPAKFTDDDYDAVIARLQKAVDKGQIRRFTGNDYTSDLSKGDFAACIAWAGDIVQLQADNPDVGYVIPDSGYMTSTDNMLIPNKARHKTNAERLIDYYYELEPAAELAAYINYVSPVAGVQPYLAKIDKSAADNPLIVPDKAMQAKSHAFRSLSSKEETAYQQKFAKLTGAEGHHHHHH
ETTSSIGEKVWDDKDNQDGKRPEKVSVNLLANGEKVKTLDVTSETNWKYEFKDLPKYDEGKKIEYTVTEDHVKDYTTDINGTTITNKYTPGETSATVTKNWDDNNNQDGKRPTEIKVELYQDGKATGKTAILNESNNWTHTWTGLDEKAKGQQVKYTVEELTKVKGYTTHVDNNDMGNLITTNKYTPETTSSIGEKVWDDKDNQDGKRPEKVSVNLLANGEKVKTLDVTSETNWKYEFKDLPKYDEGKKIEYTVTEDHVKDYTTDINGTTITNKYTPGETSATVTKNWDDNNNQDGKRPTEIKVELYQDGKATGKTAILNESNNWTHTWTGLDEKAKGQQVKYTVEELTKVKGYTTHVDNNDMGNLITTNKYT
AEGGFLEDAKTDLVLRNYYFNRDFRDHDAGKSLVDEWAQGFILKFSSGYTPGTVGVGLDAIGLFGVKLNSGRGTSNSELLPLHDDGRAADNYGRVGVAAKLRVSASELKIGEMLPDIPLLRYDDGRLLPQTFRGFAVVSRELPGLALQAGRFDAVSLRNSADMQDLSAWSAPTQKSDGFNYAGAEYRFNRERTQLGLWHGQLEDVYRQSYANLLHKQRVGDWTLGANLGLFVDRDDGAARAGEIDSHTVYGLFSAGIGLHTFYLGLQKVGGDSGWQSVYGSSGRSMGNDMFNGNFTNADERSWQVRYDYDFVGLGWPGLIGMVRYGHGSNATTKAGSGGKEWERDVELGYTVQSGPLARLNVRLNHASNRRSFNSDFDQTRLVVSYPLSW
MLNIDNIQSLIDNGEGYNVEFKVRVPSKVRELTEEICAFANADGGYLLIGVDDNGQVVDTNLENDKRSAIQGSISEISPTLHCELYSVNLGDKTVWVIDVPSSKDKPYIFSGSIYVREGANSQKLRTAEEIRSFFQECNKIYFDHIPCHWFNIYTDADAQMIKDFRTEAKLSPSTPRQTNILEHHHHHH
MNIEALERLRGWMRAKGFSRFYVVRPENFAWLVGGANTLGMGESVAYLEVGEEVVLHTSAIEHPRMVEEEAPGLPARVHPWYAFPPPPGPNDLEHDLTPLRLVLSREAQGAFTHLGREAAMAVGEVVRSARPEWTEYALAGALAEALWGRGLRPLLLLVAVDERLFRYRHPLPKGKPLGRAFMAVVCAERRGLVANLTRMASFGHGEVEARYRKVLEVEAAALSASRPGATLGEVFAALQGAYARVGFPRAWGEHHQGGVGGYRSREVVATPGHPLVLEAGMVLAWNPSLSGAKVEDTFLLTEGGLLNLTEDPFWPAVEVEGRRRPDLWRGGG

Soluble on expression in E. coli, not soluble:
MVKSIENVKLTKGLFYNSQKKGNDVILALDIDRLLAPYYEAANLPPKKRSYGGWEEREIRGHSLGHWLSAAAAMYETTGDKALLERIDRAVQELATIQDDVGYVGGVKRAHFDEMFSGEFQVGHFNIAGTWVPWYNLHKLFAGLIDVHQLTGHSLALTVVTKLADWAKKGTDQLTDDQFQRMLICEHGGMNEAMADLYTLTGHKDYLQLAIRFCHWAVLEPLANGIDELEGKHANTQIPKVIGAAKLFEITGDDTYRAIAEFFWRQVTNDRSYIIGGNSNSEHFGPANKETLGVETAETCNTYNMLKLTEHLFRWNRSSQLMDYYEKALYNHILASQDPDSGMKTYFVSLQPGHFKVYSSLEESFWCCFGTGLENPARYTRTIYDRDDRHIYVNLFMASEIHLKDLQVQIRQETNFPETDRTKLTFVKADGVSIKLHIRVPEWVAGPVTARINGKETFSESGADYLTIEREWQKGDEIEVHLPMELRIYEAKDDSHKVGIMYGPIVLAGTFGKDHFPLEHHHHHH
MKKTQLGRSFSKSFKQKKARASNASSDPFRFQNNGISYKGKLIGEQDVDKARGDAMCAEAMRTAKSIIKAAGAHKTRITLQINIDGIKVLDEKSGAVLHNFPVSRISFIARDSSDARAFGLVYGEPGGKYKFYGIKTAQAADQAVLAIRDMFQVVFEMKKKQIEQVKQQQIQDGGAEISSKKEGGVAVADLLDLESELQQIERGVQQLSTVPTNCDAFGASPFGDPFVDSFNSTATSNGTANMSGTQVPFGGLQLPQVQQMQMPMVQIPQQSHQNWPTSGAGSFDAWGQQQQQQQMHHAHSTPAFGTNGFSDTNPFASAFNTQARPPPLPTVAPTQYRDPFSVHSSAIPNSNIDWTGTGTTKENMAPSTNIQQQQSSLHHASTFANFGDNKAETWSEKKVTSLEEAFTKLVDMDALVGGQGIKETKKNPFEHILNPPKASLNSMSTTCSAAQMAATQQHTTSSHADPFGDDFFR
MLSDIQHDQFGFIKGCIISVIWLSLSRTLNRDQLNLDRFEFWQPTSQLLVLDVCLFDAFALEHHHHHH
MTAHLAAINGLRLKAECSNCGVRELCLSVGMSLTDTDRLSAIIPQPIKVKKGAALYHAGDPLQSLYAVRFGFFKTTISSQDGRDQLTGFQMSGELLGCDAISNDCHVCDAIALEDSEVCPIRFTHLERLSREMPSLQHNLNRALSKEIVRDHEMLLLLGNLNAEERMAAFLLNLSGRMFNRGYSATAFVLRMTREDIGSYLGLRLETICRAIANLRNLRIVSISGRQVEILDLNRLQALIHGCSYRAKSL
MSLTQFKKFAEHISSCFSPSAIQEFSRKSKIVKRKRMFTIDHLLWLCVWQEKNMGDSSLIDMCASLWQQFGIKISPEGLNQRFNEKSTAFLKLLFHSILEKQTPDLAAIQHAYSTHFNRIRILDSTSFQLPNTFSDKYPGNGCLMQLKSAEGHHHHHH
MGSDKIHHHHHHMTSKINKIVNGPIPDSFLFDESKRLDSLKFDGTNLEVLDQLLLPHEFKYIPVEGVSDAFAVIKSMQVRGAPLIAVVGSLGLLLEIQKASELDSESIIQKINFLISSRPTAVDLRNSLNGLKPILESQDYSDVVKLEKCRSYLLNVYTDEKLQNRILVWNAYQELLSAFPDKEKLTVMTICNTGSLATISWGTALGVIRALHSENRLKLVYVLETRPYNQGIRLTSIELLHGEVPFKLITDSMAAWAMKNHQVDCVLTGADNVARNGDTANKIGTYMLAVLCKHHNINFYPVVPFTTINKNIATGEEIKIEERPSAEMLRVNGVLIGNSECPVWNPAFDVTPAHLITKILTDFGNWPPEMLEQQIPK
MLKTPSDAAVAGCLSLLLEVSGNPKAGNVDREHDFDDLKFEHFLASAAGAFPAFLEVAEKRIIGEGVLRAVKESMRWHRAENVHFGAFLLLVPLISSWDAG
GQLDDVLMPYVGDQTEAQIYKKLRHFWIMLDRTLPDAFMHVNIGPTDNIICRTILRVDAELKQIAPNLTFMYDESITPDDLLRQATKNICDCSKPHIANYPIHANAYDGERFGIVSCYNSLPLAGGSNTLVRMNLKEVAKRAASRDDFFSNVLPTYHQLMTELMDARSSHLHEQSQFFQGFLTQEGLIEESRFAPMYGIYGMAEAVNLLLEKEGQTSRYGQDERANALGHEISASLATLVDSTPVRYGLEGKALLHAQGGISLDLDVTPGVRLPYGNEPDPVTYVQATAAHHQYYRAGISDILTIDETVKSNPEAMFNLCKGALNAGYREFTANVASNDLVRVTGYMVKLSDIAKYDAEGSRTNTTFLGAEAAKNTGILERSPRVVSQEMSPVYK
MEVDPGSDDVEADRETRAQKLKLKRNVKFRAQMRRFDEYCGVTNLTVDDLNWPLISGIPLQRQRLTGATYYDDSLLDQNPWDEFSIDRFLEITSIQLITAGAGYERNDEITRFVFQRTMKTIVTYCNFMYDLARRNGKVQITRFELQDLIHRDEFRFYMYFRQFLPNPDPNCTAFSNHYTSLLHTLYFNIPGMPQFWNNSQMYNYAATRGQRLVQNIAAFYPPEYFWNEDESKYHTTFVVPRGTEFSKFYARRFHEALGMPPLENEIITVLDWLAKLCILEIVYHTTIWCDITGFGGLPRIEHYRLAMENVEDIIFDLAIDDFSISRLQLQISPFEISRYSPLDVSGYYETIKRKKDIEEYQNRFYEVHYSDDVRIMNVYATDCSRKR
MSLKPKYKQIIDDIISQIDSGDLEQGMQLPSQRDMASLYQVNRSTVIQALDILKSQGIIEGREKQRLYVSGNTWHTYIKNNINWQNYISHSTTKNNQYFVQQINKLEFHTNMIRLGTGELAPDLIPNEQFKEILSKCHTPVLNTNYEPPQGNLKLREAVAQYMQKSGVSCTVDHICITSGALQGLKLIADGLLIPQSKIIVESPSYINSIRTWHNMRADIQQISISDIKSNINNIFKAQSQYTNSIFYCIPTLHNPTQHSYSTEEKQKIIMQCEQHGIPIVEDNVYGDLYFNHERPKPLKSFDTNDNILYLNSLSKTVSPGLRVGWIVAKPSVAAHLADLKMQNDYGASSISQYIATQWLTHPQYHDQHLKMLKNQLLIKRNLFLESLKKYFSDFGSWSTPEGSFYIWFQFKFSIDMKRLFDEAIAENILINPGEVYDKDARDCIRFSYAYVDAEDIDETLKHLSKIIQTRFTPPSSHIGKGNEGHHHHHH
MVLVVGSGAGGATLARELAIRGIDVTVIERGPCVKDSDAFLCYDEAPDVDILRTSCAGGSTLVAAGNAVRVLENTLKDYGVDITEDLHAIEAELRVRELPDTHTGRGTALIMDAAESLGLGVKKMPKFIDPDKCRPCGKCSFGCPRAAKWSARRFLDEAVEHGAVLIEETEAKNIIVRNGSVSGLRTSRGDFHDETVVLAAGAIETPRILMRAGIDAGNGLFMDTFVTVGGILEGVGFCDEVQMNALIELDGVILSPHFSTLLFPEDDRRNVLGIMVKIADERSGRVEADRIVKHHTVRDISLLSGGAAIAGSILSRAGVGAGTLRSTRPRGAHPGGTASLGEVVDENLETSIEGLFVADASVLPAAPGAPPILTIMALARRLARHIVSVLLEHHHHHH
